Source: patent US20170106084A1

B1: VH32/VL22 (antibody, V domains shown)
VH: EVQVLESGGGLVQPGGSLRLSCAVSGFSLSSNAINWVRQAPGKGLEWVGYIAVSGNTYYASWAKGRFTISRDNSKNTVYLQMNSLRAEDTAVYYCGKSNIWGQGTLVTVSS
VL: AQVMTQSPSSLSASVGDRVTITCRSSQSVRTNRLAWFQQKPGQPPKRLIYSASTLDYGVPSRFSGSGSGTEFTLTISSLQPEDFATYYCLGYFDSSADIVAFGGGTKVEIK
B2: VH00/VL00 (antibody, V domains shown)
VH: QSVEESGGRLVTPGTPLTLTCTVSGFSLSSNAINWVRQAPGKGLEWIGYIAVSGNTYYASWAKGRFTISKASTTVDLKMTSPTAEDTGTYFCGKSNIWGPGTLVTVSL
VL: AQVLTQTTSPVSAAVGSTVTISCQSSQSVRTNKLAWFQQKPGQPPKRLIYSASTLDFGVPSRFSASGSGTQFTLTISDVQCDDAATYYCLGYFDCSIADCVAFGGGTEVVVK

Target: T1, human tau(pS422) fragment SEQ ID NO: 03 (human)
T1 sequence (peptide, phosphoserine at 422 (tau numbering); biotinylated): SIDMVDXPQLATLAD
Assay: ELISA, coated antigen

Row | Binder | EC50
1 | B1 | 5.6 ng/mL
2 | B2 | 6.3 ng/mL
